Results: paper PMC6057921
Values belong to the substance of their own block, whether it stands above or below them.

Experiments:
[1] = molecular target: Arp2/3 complex (untagged, yeast) (yeast (RedStar yeast cakes)) (UniProt P32381); test: SEC; Superdex 200 Increase 10/300 GL, 4 °C; 0.7 µM Arp2/3 complex and 7 µM Abp1 incubated >1 h on ice; 10 mM HEPES pH 7.0, 50 mM KCl, 1 mM EGTA, 2 mM MgCl2, 0.5 mM DTT, 0.1 mM ATP; bands of the peak fraction quantified on stain-free gels against standards
[2] = molecular target: SNAP-tagged S. cerevisiae Arp2/3 complex (dye-labelled) (S. cerevisiae) (UniProt P32381); test: single-molecule TIRF colocalisation; 649-biotin-SNAP-Arp2/3 complex anchored by streptavidin; 20 nM Abp1-SNAP-549 with 200 nM unlabeled Abp1 (220 nM total); 0.25 s intervals for 120 s; double exponential fit
[3] = molecular target: Arp2/3 complex (untagged, yeast) (yeast (RedStar yeast cakes)) (UniProt P32381); test: negative-stain single-particle electron microscopy; Abp1-SNAP and Arp2/3 complex at 1:1 molar ratio (100 nM each), 30 min at room temperature, uranyl formate stain; random conical tilt 3D reconstructions at 21 Å
[4] = molecular target: SNAP-tagged S. cerevisiae Arp2/3 complex (dye-labelled) (S. cerevisiae) (UniProt P32381); test: single-molecule TIRF colocalisation; 649-biotin-SNAP-Arp2/3 complex anchored by streptavidin; 20 nM Abp1-SNAP-549 flowed in; no actin; 0.25 s intervals for 120 s
[5] = molecular target: Rabbit skeletal muscle actin (filaments) (rabbit) (UniProt P68135); test: single-molecule TIRF colocalisation; 10 nM JF646-SNAP-Arp2/3 on tethered, preformed unbranched OG-labeled actin filaments, no actin monomers, no Abp1; recorded at 0.15 s intervals; TIRF buffer pH 7.4; single exponential fit
[6] = molecular target: Abp1-SNAP (S. cerevisiae Abp1 with C-terminal SNAP-tag, dye-labelled) (S. cerevisiae) (UniProt P15891); test: single-molecule TIRF colocalisation; Abp1-SNAP-biotin-549 anchored by streptavidin; JF646-SNAP-Arp2/3 flowed in (10 nM in the results, 15 nM in the methods); no actin; 0.25 s intervals for 60 s
[7] = molecular target: Rabbit skeletal muscle actin (filaments) (rabbit) (UniProt P68135); test: single-molecule TIRF colocalisation; as a1 with 0.5 µM Abp1 present; double exponential fit

stoichiometry N (Abp1 per Arp2/3 complex) [1]: 2
Substance: Abp1 (S. cerevisiae, untagged after GST cleavage) (from UniProt P15891 1-592) (natural protein)

lifetime of long-lived interactions at 220 nM total Abp1 [2]: 36 s
percent of particles in the Class 1 Abp1-bound reconstruction [3]: 30%
average lifetime [4]: 0.36 s
Substance: Abp1-SNAP (S. cerevisiae Abp1 with C-terminal SNAP-tag, dye-labelled) (from UniProt P15891 1-592) (natural protein)

average lifetime on filament sides [5]: 0.37 s
average dwell time [6]: 0.37 s
lifetime of the longer-lived binding events with 0.5 µM Abp1 [7]: 2 s
Substance: SNAP-tagged S. cerevisiae Arp2/3 complex (dye-labelled) (from UniProt P32381 1-391; P47117 1-449; P38328 1-384)
